Assay results: US9090897B2, “Production of IFN-lambda by conventional dendritic cells” (Bavarian Nordic A/S, priority 2009, dated 2015)
“Also recorded” adds a separate entry of the source.

Experiments:
[1] = test system: splenic CD8+ cDC; test: In vitro stimulation of sorted splenic CD8+ cDCs, cytokines in supernatant (IFN-λ ELISA, IL-12p70 FlowCytomix); format: cell-based, mouse; details: for IFN-λ production in combination with poly IC: stimulus added together with poly IC, IL-3 and GM-CSF, 18 h; for effect of cytokine on IFN-λ production / effect of cytokine on IL-12p70 production: combinatory stimulus poly IC+CpG-1668, cytokine 10 ng/ml
From the text: DC subsets were isolated from pooled mouse spleens as described (Vremec et al., 2007). Briefly, spleens were chopped, digested with collagenase (Worthington Biochemical) and DNase (Roche) at room temperature, and treated with EDTA. Low-density cells were enriched by density centrifugation; non-DC lineage cells were coated with mAbs (anti-CD3, KT3-1.1; anti-Thy-1, T24/31.7; anti Gr-1, 1A8; anti-CD19, ID3; anti-erythrocytes, TER119 and anti-NK cells, DX5) and depleted using anti-rat Ig magnetic beads (Qiagen). Dead cells were excluded by propidium iodide staining. cDC populations were sorted based on the expression of CD11c, CD45RA, CD4, CD8a and CD172a and pDCs were purified based on CD11c, CD45RA, and CD172a (all BD Biosciences) expression. Cell sorting was performed on a FACS Aria instrument (BD Biosciences).
Cells were stimulated in vitro with single TLR agonists or combinations thereof containing 10 μg/ml Pam3Cys (InvivoGen), 100 μg/ml poly IC (Axxora), 10 μg/ml LPS (E. coli; Sigma-Aldrich or Axxora), 10 μg/ml R848 (Axxora), 1 μM CpG-1668 or CpG-2216 (TIB-Molbiol), 1 μg/ml profilin of toxoplasma (Axxora). The recombinant cytokines mouse-IL-3, mouse-IL-4, rat-IFN-γ (PeproTech) and mouse-GM-CSF (Tebu-Bio) (10 ng/ml each) were added as indicated. The addition of IL-3 and GM-CSF was based on previous observations that GM-CSF promoted the production of IL-12p70 and that the combination of IL-3 and GM-CSF increased virus induced IFN-λ production in pDCs and cDCs (Hochrein et al., 2000; Hochrein et al., 2004). As source of a parapoxvirus Zylexis, which is used for veterinary purposes was purchased from a pharmacy. HSV-1, in replication deficient form known as disc HSV-1 (HSV-1d) was used as described (Hochrein et al., 2004). IFN-λ in supernatants was analyzed by ELISA and IL-12p70 was determined by FlowCytomix bead assay (Bender Medsystems) according to manufacturer's protocol.

[2] = test system: mice; test: In vivo challenge (i.v.), serum IFN-λ and IFN-α by ELISA; parameters: species or system mouse; details: for IFN-λ production to poly IC after growth factor treatment: FL-KO mice treated 7 days with 10 μg growth factor per day, then 100 μg poly IC i.v., 3-4 h
Description: Mice were injected i.v. into the lateral tail vein with 100 μg poly IC (Axxora) and serum was collected 3-4 h after challenge. Sera were pre-diluted 1/5, […] was analyzed by ELISA as described (Hochrein et al., 2004). IFN-λ was determined by an IFN-λ3 (IL-28B) ELISA (R&D Systems).

[3] = test system: CD8α+ cDCs; test: In vitro stimulation of FL expanded ex-vivo isolated splenic CD8α+ cDCs, IFN-λ; format: cell-based, mouse; details: 5×10^5/ml, IL-3+GM-CSF+IL-4+IFN-γ, 100 μg/ml, 18 h
Description: (§1) FIG. 13 depicts that in vivo FL expanded CD8α+cDCs and eCD8α cDCs selectively produce IFN-λ to poly AU in vitro. Highly purified FL expanded ex-vivo isolated splenic 5×10^5/ml were stimulated in the presence of IL-3+GM-CSF+IL-4+IFN-γ with either poly IC (100 μg/ml) or poly AU (100 μg/ml). After 18 h supernatants were analyzed for IFN-λ.
(§2) To see if the IFN-λ production to poly AU seen in vivo would correspond with the same cells as in response to poly IC we enhanced the amount of DC in mice with FL treatment and sorted CD8α+ cDCs, eCD8α cDCs and CD11b+/CD172a+cDCs. Those cells were stimulated with poly IC or poly AU.

[4] = test system: mice; test: In vivo challenge (i.v.), serum IFN-λ and IFN-α by ELISA; parameters: species or system mouse
[5] = test system: eCD8α cDCs; test: In vitro stimulation of FL expanded ex-vivo isolated splenic eCD8α cDCs, IFN-λ; format: cell-based, mouse; details: 5×10^5/ml, IL-3+GM-CSF+IL-4+IFN-γ, 100 μg/ml, 18 h
Description: as §1, §2

CCCCCCCCCCCCCCCC(=O)N[C@@H](CSC[C@@H](COC(=O)CCCCCCCCCCCCCCC)OC(=O)CCCCCCCCCCCCCCC)C(=O)O [Pam3Cys]
IFN-λ production in combination with poly IC [1]: synergistically increased IFN-λ production

CCOCc1nc2c(N)nc3ccccc3c2n1CC(C)(C)O [R848]
IFN-λ production in combination with poly IC [1]: unable to support poly IC induced IFN-λ production

polyadenylic:polyuridylic acid [poly AU]
IFN-λ in the sera ([2]; mice, 100 or 500 μg i.v., sera after 3-4 h): induces IFN-λ; also recorded: induced IFN-λ in the sera of mice | IFN-λ production [3]: able to produce IFN-λ | systemic IFN-λ ([4]; mice, poly AU injection): not detectable | IFN-λ production [5]: able to produce IFN-λ

B1: IFN-γ: recombinant cytokine rat-IFN-γ (protein, UniProt P01581 23-156, looked up)
Interferon gamma: QGTLIESLESLKNYFNSSSMDAMEGKSLLLDIWRNWQKDGNTKILESQIISFYLRLFEVLKDNQAISNNISVIESHLITNFFSNSKAKKDAFMSIAKFEVNNPQIQHKAVNELIRVIHQLSPESSLRKRKRSRC
effect of cytokine on IFN-λ production [1]: enhanced the production of IFN-λ | effect of cytokine on IL-12p70 production [1]: little effects on IL-12p70 production

B2: FL: Fms-related tyrosine kinase 3 ligand, growth factor involved in development of DCs (protein, UniProt P49771 27-235, looked up)
Fms-related tyrosine kinase 3 …: TQDCSFQHSPISSDFAVKIRELSDYLLQDYPVTVASNLQDEELCGGLWRLVLAQRWMERLKTVAGSKMQGLLERVNTEIHFVTKCAFQPPPSCLRFVQTNISRLLQETSEQLVALKPWITRQNFSRCLELQCQPDSSTLPPPWSPRPLEATAPTAPQPPLLLLLLLPVGLLLLAAAWCLHWQRTRRRTPRPGEQVPPVPSPQDLLLVEH
IFN-λ production to poly IC after growth factor treatment [2]: not only restored, but even increased, their IFN-λ producing capacity above WT level | systemic IFN-λ response to poly IC challenge after growth factor treatment ([4]; FL treated WT mice): greatly increased systemic IFN-λ response

B3: M-CSF: M-CSF receptor ligand, growth factor (protein, UniProt P09603 33-554, looked up)
Macrophage colony-stimulating …: EEVSEYCSHMIGSGHLQSLQRLIDSQMETSCQITFEFVDQEQLKDPVCYLKKAFLLVQDIMEDTMRFRDNTPNAIAIVQLQELSLRLKSCFTKDYEEHDKACVRTFYETPLQLLEKVKNVFNETKNLLDKDWNIFSKNCNNSFAECSSQDVVTKPDCNCLYPKAIPSSDPASVSPHQPLAPSMAPVAGLTWEDSEGTEGSSLLPGEQPLHTVDPGSAKQRPPRSTCQSFEPPETPVVKDSTIGGSPQPRPSVGAFNPGMEDILDSAMGTNWVPEEASGEASEIPVPQGTELSPSRPGGGSMQTEPARPSNFLSASSPLPASAKGQQPADVTGTALPRVGPVRPTGQDWNHTPQKTDHPSALLRDPPEPGSPRISSLRPQGLSNPSTLSAQPQLSRSHSSGSVLPLGELEGRRSTRDRRSPAEPEGGPASEGAARPLPRFNSVPLTDTGHERQSEGSFSPQLQESVFHLLVPSVILVLLAVGGLLFYRWRRRSHQEPQRADSPLEQPEGSPLTQDDRQVELPV
IFN-λ production to poly IC after growth factor treatment [2]: able to increase IFN-λ production to poly IC

B4: IL-4: recombinant cytokine mouse-IL-4 (protein, UniProt P07750 21-140, looked up)
Interleukin-4: HIHGCDKNHLREIIGILNEVTGEGTPCTEMDVPNVLTATKNTTESELVCRASKVLRIFYLKHGKTPCLKKNSSVLMELQRLFRAFRCLDSSISCTMNESKSTSLKDFLESLKSIMQMDYS
effect of cytokine on IFN-λ production [1]: not IFN-λ production | effect of cytokine on IL-12p70 production [1]: increased IL-12p70
